For the assay, the target named is Snf1 (wild type) (S. cerevisiae (endogenous in yeast)) (UniProt P06782). As to the kind of experiment: pull-down.

Several values for one entry are separate records, joined by “and”; a condition that tells them apart may be missing. Identical values can stand only once.

UniProt P06782, sequence (P06782 whole entry): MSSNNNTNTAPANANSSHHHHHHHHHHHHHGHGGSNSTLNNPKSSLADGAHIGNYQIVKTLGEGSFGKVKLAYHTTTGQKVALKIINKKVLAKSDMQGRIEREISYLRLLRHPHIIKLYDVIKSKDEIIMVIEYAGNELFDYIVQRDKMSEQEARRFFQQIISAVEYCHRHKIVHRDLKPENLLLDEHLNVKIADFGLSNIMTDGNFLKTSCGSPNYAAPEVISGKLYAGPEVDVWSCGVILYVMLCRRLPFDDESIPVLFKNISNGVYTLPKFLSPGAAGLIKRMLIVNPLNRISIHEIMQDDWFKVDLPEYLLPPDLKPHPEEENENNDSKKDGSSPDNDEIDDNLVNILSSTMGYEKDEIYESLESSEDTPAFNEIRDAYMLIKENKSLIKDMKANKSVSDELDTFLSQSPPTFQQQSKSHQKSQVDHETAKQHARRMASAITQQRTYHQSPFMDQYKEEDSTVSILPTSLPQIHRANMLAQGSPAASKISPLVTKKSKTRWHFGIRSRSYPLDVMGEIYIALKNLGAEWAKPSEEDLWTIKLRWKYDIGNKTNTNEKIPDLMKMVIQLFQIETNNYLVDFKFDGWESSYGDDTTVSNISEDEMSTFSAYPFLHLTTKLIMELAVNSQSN

Take “Bmh (Bmh1 and Bmh2, collectively) (from UniProt P29311 1-267) (natural protein)”: the percent of Snf1 bound to Bmh is 30% and 50%.

These data come from publication PMC4937304.
